From IntAct's records for PubMed 24302889

B1: Retinoblastoma-related protein 1 (Arabidopsis thaliana (Mouse-ear cress)), Q9LKZ3 (parent)
chain: MEEVQPPVTPPIEPNGKRSEASLLDICEKVLSLDGSTCDEALKLFTETKRILSASMSNIGSGTREEVERFWFAFILYSVKRLSVRKEADGLSVSGDNEFNLCQILRALKLNIVDFFKELPQFVVKAGSVLGELYGADWENRLQAKEVQANFVHLSLLSKYYKRGFREFFLTYDANAEKNSANSSTYLLDSYRFGWLLFLALRNHAFSRFKDLVTCSNGVVSILAILIIHVPCRFRNFSIQDSSRFVKKGDKGVDLVASLCKIYDASEDELRIVIDKANNLVETILKKKPSPASECQTDKLDNIDPDGLTYFEDLLEETSISTSLITLEKDYYDGKGELDERVFINEEDSLLGSGSLSAGAVNITGVKRKIDALSSPARTFISPLSPHKSPAAKTNGISGATKLAATPVSTAMTTAKWLRTVISPLLPKPSPGLEHFLKSCDRDITNDVTRRAHIILEAIFPNSSLGAQCGGGSLQAVDLMDDIWAEQRRLEACKLYYRVLEAMCKAEAQILHANNLNSLLTNERFHRCMLACSAELVLATHKTITMLFPAVLERTGITAFDLSKVIESFIRHEDSLPRELRRHLNSLEERLLESMVWEKGSSMYNSLIVARPSLALEINQLGLLAEPMPSLDAIAALINFSDGANHASSVQKHETCPGQNGGIRSPKRLCTDYRSILVERNSFTSPVKDRLLALGNVKSKMLPPPLQSAFASPTRPNPGGGGETCAETGINIFFTKINKLAAVRINGMVERLQLSQQIRESVYCFFQHVLAQRTSLLFSRHIDQIILCCFYGVAKISQMSLTFREIIYNYRKQPQCKPLVFRSVYVDALQCRRQGRIGPDHVDIITFYNEIFIPAVKPLLVELGPVRNDRAVEANNKPEGQCPGSPKVSVFPSVPDMSPKKVSAVHNVYVSPLRGSKMDALISHSTKSYYACVGESTHAYQSPSKDLSAINNRLNNSSSNRKRTLNFDAEAGMVSDSMVANSLNLQNQNQNQNGSDASSSGGAAPLKTEPTDS
partner: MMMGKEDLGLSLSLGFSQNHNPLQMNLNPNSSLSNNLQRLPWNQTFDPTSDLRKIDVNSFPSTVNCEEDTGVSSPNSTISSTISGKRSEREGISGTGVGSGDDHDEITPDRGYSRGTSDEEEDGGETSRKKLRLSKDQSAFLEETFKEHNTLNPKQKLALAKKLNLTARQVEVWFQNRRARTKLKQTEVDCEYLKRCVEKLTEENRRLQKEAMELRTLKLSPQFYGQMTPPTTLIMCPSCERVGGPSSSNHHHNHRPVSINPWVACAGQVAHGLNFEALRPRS

Variants of: B1
Settings: with hat2_arath HAT2, P46601

Row | effect of a mutation on the interaction | Variant
1 | disrupting interaction strength | N849F
